B1: 115H, 72A (protein, listed as Rattus norvegicus)
chain: AFDGTWKVDRNENYEKFMEKMGINVVKRKLGAHDNLKLTITQEGNKFTVKESSNFRNIDVVFELGVDFAYSAADGTELTGTWTMEGNKLVGKFKRVDNGKELIAVREISGNELIHTYTYEGVEAKRIFKKE
modifications: PEPTIDE (1)...(131) wild-type rat intestinal fatty acid binding protein
B2: 14L 72G (protein, listed as Rattus norvegicus)
chain: AFDGTWKVDRNENLEKFMEKMGINVVKRKLGAHDNLKLTITQEGNKFTVKESSNFRNIDVVFELGVDFAYSGADGTELTGTWTMEGNKLVGKFKRVDNGKELIAVREISGNELIQTYTYEGVEAKRIFKKE
modifications: PEPTIDE (1)...(131) wild-type rat intestinal fatty acid binding protein
B3: 104G, 72A (protein, listed as Rattus norvegicus)
chain: AFDGTWKVDRNENYEKFMEKMGINVVKRKLGAHDNLKLTITQEGNKFTVKESSNFRNIDVVFELGVDFAYSAADGTELTGTWTMEGNKLVGKFKRVDNGKELIGVREISGNELIQTYTYEGVEAKRIFKKE
modifications: PEPTIDE (1)...(131) wild-type rat intestinal fatty acid binding protein
B4: 82V, 72A (protein, listed as Rattus norvegicus)
chain: AFDGTWKVDRNENYEKFMEKMGINVVKRKLGAHDNLKLTITQEGNKFTVKESSNFRNIDVVFELGVDFAYSAADGTELTGTVTMEGNKLVGKFKRVDNGKELIAVREISGNELIQTYTYEGVEAKRIFKKE
modifications: PEPTIDE (1)...(131) wild-type rat intestinal fatty acid binding protein
B5: 11M, 72A (protein, listed as Rattus norvegicus)
chain: AFDGTWKVDRMENYEKFMEKMGINVVKRKLGAHDNLKLTITQEGNKFTVKESSNFRNIDVVFELGVDFAYSAADGTELTGTWTMEGNKLVGKFKRVDNGKELIAVREISGNELIQTYTYEGVEAKRIFKKE
modifications: PEPTIDE (1)...(131) wild-type rat intestinal fatty acid binding protein
B6: 104F, 72A (protein, listed as Rattus norvegicus)
chain: AFDGTWKVDRNENYEKFMEKMGINVVKRKLGAHDNLKLTITQEGNKFTVKESSNFRNIDVVFELGVDFAYSAADGTELTGTWTMEGNKLVGKFKRVDNGKELIFVREISGNELIQTYTYEGVEAKRIFKKE
modifications: PEPTIDE (1)...(131) wild-type rat intestinal fatty acid binding protein
B7: 55Q, 72A (protein, listed as Rattus norvegicus)
chain: AFDGTWKVDRNENYEKFMEKMGINVVKRKLGAHDNLKLTITQEGNKFTVKESSNQRNIDVVFELGVDFAYSAADGTELTGTWTMEGNKLVGKFKRVDNGKELIAVREISGNELIQTYTYEGVEAKRIFKKE
modifications: PEPTIDE (1)...(131) wild-type rat intestinal fatty acid binding protein
B8: 55V, 72A (protein, listed as Rattus norvegicus)
chain: AFDGTWKVDRNENYEKFMEKMGINVVKRKLGAHDNLKLTITQEGNKFTVKESSNVRNIDVVFELGVDFAYSAADGTELTGTWTMEGNKLVGKFKRVDNGKELIAVREISGNELIQTYTYEGVEAKRIFKKE
modifications: PEPTIDE (1)...(131) wild-type rat intestinal fatty acid binding protein
B9: 23Y, 72A (protein, listed as Rattus norvegicus)
chain: AFDGTWKVDRNENYEKFMEKMGYNVVKRKLGAHDNLKLTITQEGNKFTVKESSNFRNIDVVFELGVDFAYSAADGTELTGTWTMEGNKLVGKFKRVDNGKELIAVREISGNELIQTYTYEGVEAKRIFKKE
modifications: PEPTIDE (1)...(131) wild-type rat intestinal fatty acid binding protein
B10: A73I, L72A: FABP probe clone, substitutions A73I, L72A vs SEQ ID NO: 2 (protein, listed as Rattus norvegicus)
chain: AFDGTWKVDRNENYEKFMEKMGINVVKRKLGAHDNLKLTITQEGNKFTVKESSNFRNIDVVFELGVDFAYSAIDGTELTGTWTMEGNKLVGKFKRVDNGKELIAVREISGNELIQTYTYEGVEAKRIFKKE
modifications: PEPTIDE (1)...(131) wild-type rat intestinal fatty acid binding protein
B11: D74F, L72A: FABP probe clone, substitutions D74F, L72A vs SEQ ID NO: 2 (protein, listed as Rattus norvegicus)
chain: AFDGTWKVDRNENYEKFMEKMGINVVKRKLGAHDNLKLTITQEGNKFTVKESSNFRNIDVVFELGVDFAYSAAFGTELTGTWTMEGNKLVGKFKRVDNGKELIAVREISGNELIQTYTYEGVEAKRIFKKE
modifications: PEPTIDE (1)...(131) wild-type rat intestinal fatty acid binding protein
B12: L78F, L72A: FABP probe clone, substitutions L78F, L72A vs SEQ ID NO: 2 (protein, listed as Rattus norvegicus)
chain: AFDGTWKVDRNENYEKFMEKMGINVVKRKLGAHDNLKLTITQEGNKFTVKESSNFRNIDVVFELGVDFAYSAADGTEFTGTWTMEGNKLVGKFKRVDNGKELIAVREISGNELIQTYTYEGVEAKRIFKKE
modifications: PEPTIDE (1)...(131) wild-type rat intestinal fatty acid binding protein

How the values were obtained:
Format in all cases: binding
[1] = Probe fluorescence ratio response to arachidonic acid relative to ADIFAB2; conditions: for DR/DR AA: arachidonic acid, response relative to ADIFAB2; for DR/DRAD2 AA: Table 3, Arachidonic acid
In short: (§1)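 Each fatty acid's response was expressed relative to ADIFAB2, the rI-FABP-L72A probe, as ΔR/ΔRreference. ΔR is the change in the background-corrected two-wavelength intensity ratio R=Fλ1/Fλ2 from its analyte-free baseline R0. Emission was read near about 420-480 nm for unbound and about 495-580 nm for FFA-bound probe.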

[2] = Probe fluorescence ratio response to linolenic acid relative to ADIFAB2; conditions: for DR/DR LNA: response relative to ADIFAB2; for DR/DRAD2 LNA: Table 3
In short: as §1

[3] = Probe fluorescence ratio response to oleic acid relative to ADIFAB2; conditions: for DR/DR OA: response relative to ADIFAB2; for DR/DRAD2 OA: Table 3
In short: as §1

[4] = Probe fluorescence ratio response to linoleic acid relative to ADIFAB2; conditions: for DR/DR LA: response relative to ADIFAB2; for DR/DRAD2 LA: Table 3
In short: as §1

[5] = Probe fluorescence ratio response to palmitic acid relative to ADIFAB2; conditions: for DR/DR PA: response relative to ADIFAB2; for DR/DRAD2 PA: Table 3
In short: as §1

| Molecule | DR/DR AA [1] | DR/DR LNA [2] | DR/DR OA [3] | DR/DR LA [4] | DR/DR PA [5] | DR/DRAD2 AA [1] | DR/DRAD2 LNA [2] | DR/DRAD2 OA [3] | DR/DRAD2 LA [4] | DR/DRAD2 PA [5] |
| --- | --- | --- | --- | --- | --- | --- | --- | --- | --- | --- |
| B1 | 0.891 | 0.697 | 0.675 | 0.741 | 0.514 | – | – | – | – | – |
| B2 | 0.873 | 0.886 | 0.730 | 0.817 | 0.334 | – | – | – | – | – |
| B3 | 0.866 | 0.687 | 0.691 | 0.665 | 0.650 | – | – | – | – | – |
| B4 | 0.757 | 0.456 | 0.461 | 0.519 | 0.345 | – | – | – | – | – |
| B5 | 0.697 | 0.651 | 0.463 | 0.576 | 0.543 | – | – | – | – | – |
| B6 | 0.686 | 0.436 | 0.462 | 0.486 | 0.263 | – | – | – | – | – |
| B7 | 0.600 | 0.492 | 0.536 | 0.474 | 0.428 | – | – | – | – | – |
| B8 | 0.581 | 0.477 | 0.468 | 0.432 | 0.374 | – | – | – | – | – |
| B9 | 0.492 | 0.443 | 0.412 | 0.442 | 0.281 | – | – | – | – | – |
| B10 | – | – | – | – | – | 0.38 | 0.03 | −0.04 | −0.04 | −0.04 |
| B11 | – | – | – | – | – | 0.44 | 1.04 | 0.51 | 0.67 | 0.93 |
| B12 | – | – | – | – | – | 2.04 | 2.05 | 1.83 | 2 | 0.91 |

Source: US20060257938A1, “Method of screening for drugs that block ligand binding to a lipid binding protein” (priority 2005, published 2006)
